This data set concerns Escherichia coli TOP10. As to the kind of experiment: shrunken log2 fold change of peptide-encoding DNA abundance (4.5 h post-induction vs induction); higher = less antimicrobial activity (less host growth inhibition). The following applies: time post-induction: 4.5 h; library: site-saturation at positions 5, 18, 19, 20.
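Further: peptides expressed intracellularly from a pBAD plasmid library in pooled LB shake-flask culture, induced with 0.3% L-arabinose, DNA abundance read by NGS, three biological replicates, DESeq2 with apeglm shrinkage.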

Consider RRIRTRPPRLPRPRPRPAIKPRP, for which the “shrunken log2 fold change” value was 0.957. The value for RRIRKRPPRLPRPRPRPCNEPRP was -0.00256; that for RRIRIRPPRLPRPRPRPQANPRP was 0.00435. The value for RRIRDRPPRLPRPRPRPVWIPRP was -0.125; that for RRIRARPPRLPRPRPRPTPPPRP was 0.811; that for RRIRVRPPRLPRPRPRPLHHPRP was -0.253.

As for RRIRPRPPRLPRPRPRPGWTPRP, the “shrunken log2 fold change” value worked out at 0.235. The value for RRIRKRPPRLPRPRPRPRAHPRP was 0.68; that for RRIRKRPPRLPRPRPRPQRNPRP was 0.0463; that for RRIRKRPPRLPRPRPRPMDNPRP was 0.103. Take RRIRKRPPRLPRPRPRPQDPPRP: the “shrunken log2 fold change” value stood at 1.55. The value for RRIRCRPPRLPRPRPRPAVYPRP was 0.0903; that for RRIRYRPPRLPRPRPRPRQRPRP was 0.194; that for RRIRDRPPRLPRPRPRPAFVPRP was -0.114. With RRIRARPPRLPRPRPRPIDVPRP, the “shrunken log2 fold change” value is -0.641.

RRIRIRPPRLPRPRPRPVDKPRP: the “shrunken log2 fold change” value turned out to be 0.0266. As for RRIRWRPPRLPRPRPRPDFSPRP, the “shrunken log2 fold change” value is -0.0269. The result for RRIRHRPPRLPRPRPRPVFVPRP reads -0.182; that for RRIRARPPRLPRPRPRPCDGPRP, 0.146. The result for RRIRERPPRLPRPRPRPCDKPRP reads 0.0148. The result for RRIRGRPPRLPRPRPRPQCMPRP reads 0.403; that for RRIRHRPPRLPRPRPRPQQDPRP, -0.147; that for RRIRSRPPRLPRPRPRPKCSPRP, -0.122. Take RRIRPRPPRLPRPRPRPQKMPRP: the “shrunken log2 fold change” value was -0.201. The value for RRIRDRPPRLPRPRPRPMQNPRP was 0.269; that for RRIRRRPPRLPRPRPRPNDPPRP was 0.0958; that for RRIRYRPPRLPRPRPRPVMHPRP was -0.338. The result for RRIRNRPPRLPRPRPRPEAGPRP reads -0.0775.

With RRIRPRPPRLPRPRPRPAHYPRP, the “shrunken log2 fold change” value was 0.02. The result for RRIRTRPPRLPRPRPRPICFPRP reads -0.583. With RRIRVRPPRLPRPRPRPWIHPRP, the “shrunken log2 fold change” value was -0.349. Regarding RRIRPRPPRLPRPRPRPVECPRP, the “shrunken log2 fold change” value worked out at 0.00863. The result for RRIRRRPPRLPRPRPRPQDWPRP reads 0.171; that for RRIRKRPPRLPRPRPRPHNSPRP, -0.24; that for RRIRPRPPRLPRPRPRPWYVPRP, -0.369. The result for RRIRGRPPRLPRPRPRPLGTPRP reads 0.736; that for RRIRNRPPRLPRPRPRPTGNPRP, -0.104; that for RRIRMRPPRLPRPRPRPPEFPRP, 1.05. The result for RRIRWRPPRLPRPRPRPVASPRP reads 0.27. For RRIRARPPRLPRPRPRPNFWPRP, the “shrunken log2 fold change” value was 0.352. The result for RRIRVRPPRLPRPRPRPAIIPRP reads -0.425; that for RRIRGRPPRLPRPRPRPWIKPRP, -0.0249.

Turning to RRIRWRPPRLPRPRPRPKNYPRP, the “shrunken log2 fold change” value was -0.152. RRIRCRPPRLPRPRPRPVIPPRP: the “shrunken log2 fold change” value was -0.392. The result for RRIRPRPPRLPRPRPRPEKCPRP reads 0.156; that for RRIRIRPPRLPRPRPRPDRHPRP, -0.504; that for RRIRIRPPRLPRPRPRPHYCPRP, -0.0772.

As for RRIRTRPPRLPRPRPRPMMQPRP, the “shrunken log2 fold change” value is -0.0796. The value for RRIRMRPPRLPRPRPRPPRAPRP was 1.78. In the case of RRIRIRPPRLPRPRPRPRCDPRP, the “shrunken log2 fold change” value is -0.0753. The result for RRIRCRPPRLPRPRPRPGTAPRP reads 0.292. The result for RRIRIRPPRLPRPRPRPMTVPRP reads 0.0104; that for RRIRPRPPRLPRPRPRPACTPRP, 0.163; that for RRIRRRPPRLPRPRPRPIMMPRP, -0.00819. The result for RRIRWRPPRLPRPRPRPRQSPRP reads 0.236. As for RRIRKRPPRLPRPRPRPKPTPRP, the “shrunken log2 fold change” value is 0.7. With RRIRMRPPRLPRPRPRPFDIPRP, the “shrunken log2 fold change” value is -0.126. In the case of RRIRTRPPRLPRPRPRPEFCPRP, the “shrunken log2 fold change” value is 0.146. As to RRIRQRPPRLPRPRPRPPNSPRP, the “shrunken log2 fold change” value is -0.0968. The value for RRIRPRPPRLPRPRPRPPNGPRP was 0.593; that for RRIRGRPPRLPRPRPRPFQSPRP was -0.00674. With RRIRMRPPRLPRPRPRPRNDPRP, the “shrunken log2 fold change” value turned out to be 0.193. The result for RRIRDRPPRLPRPRPRPYKYPRP reads -0.661.

With RRIRRRPPRLPRPRPRPVFIPRP, the “shrunken log2 fold change” value was -0.0708. With RRIRDRPPRLPRPRPRPYSWPRP, the “shrunken log2 fold change” value was determined as 0.016. The result for RRIRMRPPRLPRPRPRPPKGPRP reads 0.873.

For the sequence RRIRWRPPRLPRPRPRPDIMPRP, the “shrunken log2 fold change” value was 0.0439. As to RRIRRRPPRLPRPRPRPDKIPRP, the “shrunken log2 fold change” value turned out to be 0.402. The result for RRIRYRPPRLPRPRPRPIASPRP reads -0.196. The result for RRIRQRPPRLPRPRPRPAYSPRP reads -0.051; that for RRIRARPPRLPRPRPRPFHTPRP, -0.0492; that for RRIRIRPPRLPRPRPRPHFFPRP, -0.237. The result for RRIRKRPPRLPRPRPRPAEQPRP reads 0.452; that for RRIRERPPRLPRPRPRPMTVPRP, -0.124; that for RRIRQRPPRLPRPRPRPQSPPRP, -0.0301. For the sequence RRIRDRPPRLPRPRPRPHPKPRP, the “shrunken log2 fold change” value is -0.149. The value for RRIRGRPPRLPRPRPRPVGNPRP was 0.204; that for RRIRRRPPRLPRPRPRPPWDPRP was 0.577. The result for RRIRGRPPRLPRPRPRPWIEPRP reads -0.0591. For RRIRMRPPRLPRPRPRPWNWPRP, the “shrunken log2 fold change” value came to 0.342.

In the case of RRIRSRPPRLPRPRPRPFRDPRP, the “shrunken log2 fold change” value is -0.123. The result for RRIRDRPPRLPRPRPRPYPTPRP reads -0.635. The result for RRIRVRPPRLPRPRPRPGIVPRP reads 0.106. The value for RRIRIRPPRLPRPRPRPNVYPRP was -0.228. Turning to RRIRCRPPRLPRPRPRPVEGPRP, the “shrunken log2 fold change” value was 0.0501.

For the sequence RRIRERPPRLPRPRPRPSCIPRP, the “shrunken log2 fold change” value is -0.455. Take RRIRQRPPRLPRPRPRPGVWPRP: the “shrunken log2 fold change” value is 0.611.

Regarding RRIRDRPPRLPRPRPRPFLEPRP, the “shrunken log2 fold change” value is -0.192. On to RRIRVRPPRLPRPRPRPSKHPRP, for which the “shrunken log2 fold change” value was -0.538.

RRIRTRPPRLPRPRPRPYKHPRP: the “shrunken log2 fold change” value is -0.518. The value for RRIRYRPPRLPRPRPRPDSFPRP was 0.0025.
